What is called stoichiometry N is the number of molecules, sites or subunits per partner or assembly.

We go through one substance from PMC5395944.

The target in this assay is PglK-E510Q (C. jejuni) (UniProt Q0P9C4). In words: crystal structure.

“PglK-E510Q (from UniProt Q0P9C4) (natural protein)” gave a stoichiometry N of 2.
